Experimental data: publication PMC11388503

Molecular target: T1, procalcitonin (UniProt P01258 26-141)
T1 sequence: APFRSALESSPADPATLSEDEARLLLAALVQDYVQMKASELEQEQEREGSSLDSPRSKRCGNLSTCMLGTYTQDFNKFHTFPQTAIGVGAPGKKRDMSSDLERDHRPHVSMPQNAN
Assay: electrochemical IDE sensor

Binder: GGCGCCGTCAAGGCATTACAATTACGGATATGAACTCGAC (ssDNA, 5'-SH (thiol)) [complementary aptamer]
- binding result: no binding
